In test [1] the target is T1, human IL-11 (human, UniProt P20809 22-199).
T1 construct: bought from Invigate; also called hIL-11; hIL11
T1 sequence: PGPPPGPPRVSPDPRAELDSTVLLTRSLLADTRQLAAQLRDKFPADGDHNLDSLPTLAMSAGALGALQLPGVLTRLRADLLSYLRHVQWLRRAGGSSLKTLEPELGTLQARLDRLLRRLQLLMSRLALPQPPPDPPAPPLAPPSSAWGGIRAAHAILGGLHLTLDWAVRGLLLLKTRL
Put plainly: SPR, antibody captured, IL-11 as analyte. As for the experimental part: (§1) Antibodies were captured via anti-mouse Fc IgGs (“Mouse antibody capture kit, Order No. BR100383, Cytiva) covalently amine coupled to a Series S CM5 sensor chip (Cytiva). The amine coupling was carried out according to the manufacturer's instructions using 1-ethyl-3-(3-dimethylaminopropyl) carbodiimide hydrochloride (EDC), N-hydroxysuccinimide (NHS) and ethanolamine HCl, pH 8.5 (“Amine Coupling Kit” BR-1000-50, Cytiva.). Human IL-11 (Invigate, e.g., lot #C121021-19), and murine IL-11 (Invigate, e.g., lot #C210819-09) were used as analytes. […] Based on that experiment an IL-11 concentration range was chosen to optimally determine kinetics and affinity of anti-IL-11 antibodies in multicycle kinetics mode. The sensor surface was regenerated with glycine pH 1.7 after each antigen injection. Obtained sensorgrams were double referenced (subtraction of reference flow cell signal and buffer injection) and were fitted to a 1:1 Langmuir binding model to derive kinetic data using the Biacore T200 Evaluation software or the Biacore Insight software.
(§2) 42 hits from the IL-11 and […] screening analysis were selected, expressed by transient transfection of mammalian cells and purified as described in Example 15. Antibodies were then tested for human IL-11 and murine IL-11 binding by SPR as described in Example 16.
A general note: SPR reads the build-up and loss of mass on a sensor chip optically.

The target of test [2] is T2, murine IL-11 (mouse, UniProt P47873 22-199).
T2 construct: bought from Invigate; also called mIL-11; mIL11
T2 sequence: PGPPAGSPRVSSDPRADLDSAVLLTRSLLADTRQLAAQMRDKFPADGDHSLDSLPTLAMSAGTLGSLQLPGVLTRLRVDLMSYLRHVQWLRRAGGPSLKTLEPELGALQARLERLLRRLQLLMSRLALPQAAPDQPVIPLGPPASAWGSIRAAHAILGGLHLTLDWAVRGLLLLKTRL
The test can be described thus: SPR, antibody captured, IL-11 as analyte. On the procedure:
as §1, §2

B1: TPP-26291 (antibody, V domains shown)
VH: EVQLLESGGGLVQPGGSLRLSCAASGFTFSSYGMHWVRQAPGKGLEWVSVISYDGSYKYYADSVKGRFTISRDNSKNTLYLQMNSLRAEDTAVYYCAAGVPDYWGQGTLVTVSS
VL: QSVLTQPPSASGTPGQRVTISCTGSSSNIGAGYDVHWYQQLPGTAPKLLIYSNNERPSGVPDRFSGSKSGTSASLAISGLRSEDEADYYCAAWDPSLNGPVFGGGTKLTVL
notes: constant regions not restated
With B1, the Kd (in general, the free concentration of one partner at which half of the binding sites on the other are occupied at equilibrium, for simple one-to-one binding) in test [1] was 9.7 nM; in test [2], 0.94 nM.

B2: TPP-26298 (antibody, V domains shown)
VH: EVQLLESGGGLVQPGGSLRLSCAASGFTFSSYGMHWVRQAPGKGLEWVSVISYDGSYKYYADSVKGRFTISRDNSKNTLYLQMNSLRAEDTAVYYCAAGVPDYWGQGTLVTVSS
VL: QSVLTQPPSASGTPGQRVTISCLGSSSNIGAGYDVHWYQQLPGTAPKLLIYSNNERPSGVPDRFSGSKSGTSASLAISGLRSEDEADYYCAAWDDSLNGPVFGGGTKLTVL
notes: constant regions not restated
Regarding B2, the Kd is 13 nM in test [1] and 0.73 nM in test [2].

B3: TPP-26293 (antibody, V domains shown)
VH: EVQLLESGGGLVQPGGSLRLSCAASGFTFSSYGMHWVRQAPGKGLEWVSVISYDGSYKYYADSVKGRFTISRDNSKNTLYLQMNSLRAEDTAVYYCAAGVPDYWGQGTLVTVSS
VL: QSVLTQPPSASGTPGQRVTISCTGSSSNIGAWYDVHWYQQLPGTAPKLLIYSNNERPSGVPDRFSGSKSGTSASLAISGLRSEDEADYYCAAWDDSLNGPVFGGGTKLTVL
notes: constant regions not restated
As to B3, the Kd in test [1] turned out to be 11 nM; in test [2], 0.26 nM.

B4: TPP-26308 (antibody, V domains shown)
VH: EVQLLESGGGLVQPGGSLRLSCAASGFTFSSYGMHWVRQAPGKGLEWVSVISYDGSYKYYADSVKGRFTISRDNSKNTLYLQMNSLRAEDTAVYYCAAGVPDYWGQGTLVTVSS
VL: QSVLTQPPSASGTPGQRVTISCTGSSSNIGAGYDVHWYQQLPGTAPKLLIYSNNERPSGVPDRFSGSKSGTSASLAISGLRSEDEADYYCAAWDVSLNGPVFGGGTKLTVL
notes: constant regions not restated
Turning to B4, the Kd in test [1] turned out to be 17 nM; in test [2] it was 1.3 nM.

B5: TPP-26294 (antibody, V domains shown)
VH: EVQLLESGGGLVQPGGSLRLSCAASGFTFSSYGMHWVRQAPGKGLEWVSVISYDGSYKYYADSVKGRFTISRDNSKNTLYLQMNSLRAEDTAVYYCAAGVPDYWGQGTLVTVSS
VL: QSVLTQPPSASGTPGQRVTISCTGSSSNIGAAYDVHWYQQLPGTAPKLLIYSNNERPSGVPDRFSGSKSGTSASLAISGLRSEDEADYYCAAWDDSLNGPVFGGGTKLTVL
notes: constant regions not restated
Turning to B5, the Kd in test [1] was found to be 11 nM; in test [2], 0.82 nM.

B6: TPP-26306 (antibody, V domains shown)
VH: EVQLLESGGGLVQPGGSLRLSCAASGFTFSSYGMHWVRQAPGKGLEWVSVISYDGSYKYYADSVKGRFTISRDNSKNTLYLQMNSLRAEDTAVYYCAAGVPDYWGQGTLVTVSS
VL: QSVLTQPPSASGTPGQRVTISCTGSSSNIGAGYDVHWYQQLPGTAPKLLIYSNNERPSGVPDRFSGSKSGTSASLAISGLRSEDEADYYCAAWDQSLNGPVFGGGTKLTVL
notes: constant regions not restated
On to B6, for which the results for the dissociation constant Kd in test [1] and in test [2] were 12 nM and 0.65 nM, respectively.

B7: TPP-26297 (antibody, V domains shown)
VH: EVQLLESGGGLVQPGGSLRLSCAASGFTFSSYGMHWVRQAPGKGLEWVSVISYDGSYKYYADSVKGRFTISRDNSKNTLYLQMNSLRAEDTAVYYCAAGVPDYWGQGTLVTVSS
VL: QSVLTQPPSASGTPGQRVTISCTGSSSNIGAGYDVHWYQQLPGTAPKLLIYSNNERPSGVPDRFSGSKSGTSASLAISGLRSEDEADYYCAAWQDSLNGPVFGGGTKLTVL
notes: constant regions not restated
Consider B7, for which the figures for the Kd in test [1] and in test [2] were 13 nM and 0.89 nM, respectively.

B8: TPP-26295 (antibody, V domains shown)
VH: EVQLLESGGGLVQPGGSLRLSCAASGFTFSSYGMHWVRQAPGKGLEWVSVISYDGSYKYYADSVKGRFTISRDNSKNTLYLQMNSLRAEDTAVYYCAAGVPDYWGQGTLVTVSS
VL: QSVLTQPPSASGTPGQRVTISCTGSSSNIGAGYDVHWYQQLPGTAPKLLIYSNNERPSGVPDRFSGSKSGTSASLAISGLRSEDEADYYCAAWDHSLNGPVFGGGTKLTVL
notes: constant regions not restated
In the case of B8, the results for the Kd in test [1] and in test [2] were 9.8 nM and 0.65 nM, respectively.

B9: TPP-26292 (antibody, V domains shown)
VH: EVQLLESGGGLVQPGGSLRLSCAASGFTFSSYGMHWVRQAPGKGLEWVSVISYDGSYKYYADSVKGRFTISRDNSKNTLYLQMNSLRAEDTAVYYCAAGVPDYWGQGTLVTVSS
VL: QSVLTQPPSASGTPGQRVTISCTGSSSNIGAGYDVHWYQQLPGTAPKLLIYSNNERPSGVPDRFSGSKSGTSASLAISGLRSEDEADYYCAAWDESLNGPVFGGGTKLTVL
notes: constant regions not restated
As to B9, the Kd in test [1] is 13 nM; in test [2], 0.48 nM.

B10: TPP-26300 (antibody, V domains shown)
VH: EVQLLESGGGLVQPGGSLRLSCAASGFTFSSYGMHWVRQAPGKGLEWVSVISYDGSYKYYADSVKGRFTISRDNSKNTLYLQMNSLRAEDTAVYYCAAGVPDYWGQGTLVTVSS
VL: QSVLTQPPSASGTPGQRVTISCTGSSSNIGAGYDVHWYQQLPGTAPKLLIYSNNERPSGVPDRFSGSKSGTSASLAISGLRSEDEADYYCAAWDSSLNGPVFGGGTKLTVL
notes: constant regions not restated
B10: the Kd in test [1] amounted to 9.2 nM; in test [2], 0.45 nM.

B11: TPP-26299 (antibody, V domains shown)
VH: EVQLLESGGGLVQPGGSLRLSCAASGFTFSSYGMHWVRQAPGKGLEWVSVISYDGSYKYYADSVKGRFTISRDNSKNTLYLQMNSLRAEDTAVYYCAAGVPDYWGQGTLVTVSS
VL: QSVLTQPPSASGTPGQRVTISCTGSSSNIGAGYDVHWYQQLPGTAPKLLIYSNNERPSGVPDRFSGSKSGTSASLAISGLRSEDEADYYCAAWDDSLYGPVFGGGTKLTVL
notes: constant regions not restated
Turning to B11, the Kd was 11 nM in test [1] and 0.63 nM in test [2].

B12: TPP-26302 (antibody, V domains shown)
VH: EVQLLESGGGLVQPGGSLRLSCAASGFTFSSYGMHWVRQAPGKGLEWVSVISYDGSYKYYADSVKGRFTISRDNSKNTLYLQMNSLRAEDTAVYYCAAGVPDYWGQGTLVTVSS
VL: QSVLTQPPSASGTPGQRVTISCTGSSSNIGAGYDVHWYQQLPGTAPKLLIYSNNERPSGVPDRFSGSKSGTSASLAISGLRSEDEADYYCSAWDDSLNGPVFGGGTKLTVL
notes: constant regions not restated
On to B12, for which the figures for the Kd in test [1] and in test [2] were 13 nM and 0.7 nM, respectively.

B13: TPP-26296 (antibody, V domains shown)
VH: EVQLLESGGGLVQPGGSLRLSCAASGFTFSSYGMHWVRQAPGKGLEWVSVISYDGSYKYYADSVKGRFTISRDNSKNTLYLQMNSLRAEDTAVYYCAAGVPDYWGQGTLVTVSS
VL: QSVLTQPPSASGTPGQRVTISCTGSSSNIGAGYDVHWYQQLPGTAPKLLIYSNNERPSGVPDRFSGSKSGTSASLAISGLRSEDEADYYCAAWDNSLNGPVFGGGTKLTVL
notes: constant regions not restated
For B13, the figures for the Kd in test [1] and in test [2] were 14 nM and 0.71 nM, respectively.

B14: TPP-26304 (antibody, V domains shown)
VH: EVQLLESGGGLVQPGGSLRLSCAASGFTFSSYGMHWVRQAPGKGLEWVSVISYDGSYKYYADSVKGRFTISRDNSKNTLYLQMNSLRAEDTAVYYCAAGVPDYWGQGTLVTVSS
VL: QSVLTQPPSASGTPGQRVTISCTGSSSNIWAGYDVHWYQQLPGTAPKLLIYSNNERPSGVPDRFSGSKSGTSASLAISGLRSEDEADYYCAAWDDSLNGPVFGGGTKLTVL
notes: constant regions not restated
Turning to B14, the Kd in test [1] worked out at 12 nM; in test [2], 0.64 nM.

B15: TPP-26307 (antibody, V domains shown)
VH: EVQLLESGGGLVQPGGSLRLSCAASGFTFSSYGMHWVRQAPGKGLEWVSVISYDGSYKYYADSVKGRFTISRDNSKNTLYLQMNSLRAEDTAVYYCAAGVPDYWGQGTLVTVSS
VL: QSVLTQPPSASGTPGQRVTISCTGSSSNIGAGYDVHWYQQLPGTAPKLLIYSNNERPSGVPDRFSGSKSGTSASLAISGLRSEDEADYYCAAWDISLNGPVFGGGTKLTVL
notes: constant regions not restated
With B15, the figures for the Kd in test [1] and in test [2] were 16 nM and 1.6 nM, respectively.

B16: TPP-26309 (antibody, V domains shown)
VH: EVQLLESGGGLVQPGGSLRLSCAASGFTFSSYGMHWVRQAPGKGLEWVSVISYDGSYKYYADSVKGRFTISRDNSKNTLYLQMNSLRAEDTAVYYCAAGVPDYWGQGTLVTVSS
VL: QSVLTQPPSASGTPGQRVTISCTGSSSNIGAGYDVHWYQQLPGTAPKLLIYSNNERPSGVPDRFSGSKSGTSASLAISGLRSEDEADYYCAAWDFSLNGPVFGGGTKLTVL
notes: constant regions not restated
B16: the Kd in test [1] was found to be 8.2 nM; in test [2], 0.8 nM.

B17: TPP-26303 (antibody, V domains shown)
VH: EVQLLESGGGLVQPGGSLRLSCAASGFTFSSYGMHWVRQAPGKGLEWVSVISYDGSYKYYADSVKGRFTISRDNSKNTLYLQMNSLRAEDTAVYYCAAGVPDYWGQGTLVTVSS
VL: QSVLTQPPSASGTPGQRVTISCTGSSSNIGAGYDVHWYQQLPGTAPKLLIYSNNERPEGVPDRFSGSKSGTSASLAISGLRSEDEADYYCAAWDDSLNGPVFGGGTKLTVL
notes: constant regions not restated
For the molecule B17, the Kd stood at 13 nM in test [1] and 0.65 nM in test [2].

The record behind these values is patent US20240317847A1 (Bayer, published 2024).
